Assay: soluble on expression in E. coli; label from the status in PepcDB or PDB records

Sequence | soluble on expression in E. coli
SSFVGENSGVKMGSEDWEKDEPQCCLEDPAVSPLEPGPSLPAMNFVHTSPKVKNLNPKKFSIHDQDHKVLVLDSGNLIAVPDKNYIRPEIFFALASSLSSASAEKGSPILLGVSKGEFCLYCDKDKGQSHPSLQLKKEKLMKLAAQKESARRPFIFYRAQVGSWNMLESAAHPGWFICTSCNCNEPVGVTDKFENRKHIEFSFQPVCKAEMSPSEVSD | soluble
GPGSMSDAFDIDEDMKMRIRVLNEIMYEDELDDGQQDVHLARGDIIDGTSDSDRDDNGGGGQRRRERRRGGGGADVCAPGPPRAETWAAVEGPEAAAASAASSLQQRAPRDEYHDKRYHEKRSKDRLARTKQIQSARNERVPAYANKKKTSKAKAGGSKGSLQRAVKRGKFTADA | soluble
MSLETSTQCTSAVAHTSGRRNYNEDRICVATNIEGADLFAVFDGHNGHEAATLCRNKLKQVYGSCHGNINDTFQSLNDIVSKETTAGCTATIVAVKQNSIEVGNCGDSPAYVIRKDKSIEKITYDHKATDPKEEEMIVKNGGVVMNLFGTKRVNGQIMVTRSIGDRSLHPPMTSIPTTKIISKEDIISICVMSDGVTDALTDLEIHDIMTNGQPIEIRAQTIRNQAYKEGSKDNICVVVVDLEGHHHHHH | soluble
DQEVRLENRITFQLELVGLERVVRISAKPTKRLQEALQPILAKHGLSLDQVVLHRPGEKQPMDLENPVSSVASQTLVLDTPPDAKMSEARS | soluble
GPGSMKERYDPLPPQLETYLRLIPPTSGAASGKADGDKKTGPRRSDDDPMSFYCTSFLMSREWDVQKAFAMMQEVVAYRAVNHLDEQSHFPPAFSVRGWSTEDVCRALERSPRKVGERIDRVCAGVAQGLICGIHYWDKNGRPVFYMVIDSFDEAELMRQLKQMASVGKSHVDVMWEYMVHVLSVTESLVLYQLIQRGAPLSGRPLTSKTTDEEAPAWDLSEGAVTMVYDMKRLTLKMLWKPIIDMFCDNSKTFFNYYPDRIHRIVCVNSPSLVRYAFLLVRGVLPAAFQRKISFVSPHDTLATLETMIDRKYIPHFLGGDCRCEAHDGECLSGYDPRQTGRTRRTVARTDASSEGNDEAPTVYVKLAAGHECTRVFPVNASEVVVWEFAVEGGGHDIIFTTFFVPQSAASGMQWTQVELSKLSSYMVTSEALAKGSDAFAVAEDGVVVLKWHNRRHWFASKRLQLRAYKEGAPSTLHGQASHPE | not soluble
MGSDKIHHHHHHMQERLIRLLEAIAGAANPPNATDLAQLTGLPRATIYRNISSLVDCGFVEVTDCGSRYVLGMRFVKIALTGKSDMHVINAVSAMMQQVVKTSGETGFLARYRGGRVDLIHIETPADPSLSYIYPGLGPRPAHACSSAKAIAAFITPELRDELLDIQPMRFNQNTITDPDQIQRELNQVRRYGYAICDGEIDEGVSSVAVPINVDRLGAIFSMGVVGPSNRIKPMVQNRILPVLSAEAVRAAAAIQHCSVVDAETTNAEALADAREGLNKTH | not soluble
MTTDIRPLLVELFTEELPPKALQKLGQAFAEGVRATLARHHLLADGCAVEPFATPRRLAVRLSAVLAQAPEQAYAEKLMPVKVGLDANGQPTAALAKKLAAKGLEGLDPATLERESDGKQEYLVARGTAAGAQLAVGLQEGLDAAIDGLPIPKVMRYQLADGQTTVKFVRPAHGLVALFGADIVPIAALGLQAGRATQGHRFQSNGAIELATAQGYEADLAERGRVIASFEARRAEISRLLDEHAQRLGATLGDDPEVTALLDEVTALVEHPTVYVGQFEEQFLQVPQECLILTMRLNQKYFPLFDPASGKLTHRFLIVSNMQVADPANIVEGNQRVVRPRLADAQFFFETDRKTPLAARVEQLGSIVYHNKLSTQLERVERVRAIARGIATALGGDAAHCDRAALLAKADLGSNMVGEFPELQGIMGAYYAQGDGEPADVVTALRTQYRNRYDAPVDAATLTAATLFIAERIETLVGIWSIGLAPTGERDPFGLRRAALGLISAFEQLAAGGWLKVSEDGPLSLDGLLALAAQAFPDGKIGADTLAEVRAFIYERYRNQLIGEHDRNAVEAVIALAPPL | not soluble
MAVGAPFLYRYSLYNCAYVILNGKVLGIVPKSYIPNYSEFYEKRWFTEGFNIKGLNVDLDFQKEVPFGTDLIFSFKNLKVGFEICEDLWVTIPPSSNLALMGANLICNLSASNELVSKSSYRKSLVQNQSARTMCSYIYSSAGVHESTTDLLFSGHMIIAENGTIIKENNRFKRENDLLTGIVDLFKLDAERIKNISFRNSTFNENNEPRFIPFNLENTEIKNFDREIDKHPFLPKSQYAMEARCEEILNIQAAALAKRLEHTNLKKAVIGISGGLDSTLALLVVVKTFDMLNIPRENIITITMPGFGTTDRTYNNAVTLCKELHCDFREINIVNAALQHFEDIGHDKDIHDVTYENVQARERTQILMDLANKEGGLLIGTGDLSELALGWCTYNGDHMSMYSVNCSIPKTLVRFLVNYFANHEISNDAKEALLDILDTPVSPELLPKDKEGKIAQKTEDIVGPYELHDFFLYHFIKHGSSPERILFLAKEAFKNDYDEETLKKWLDKFIRRFFTQQFKRSALPDGPKVGSISLSPRGDWRMPSDAVYNDFLILEHHHHHH | not soluble
MLQHKILGLDVGSRTVGIAISDIMGWTAQGLDTLRINEENNELGIDQLVDIIKKHNVGTVVIGLPKNMNNSIGFRGEASLTYKEKLLEAYPSIEIVMWDERLSTMAAERSLLEADVSRQKRKQVIDKMAAVFILQGYLDSLHLEHHHHHH | soluble
TALIASGLAPQPFYFYGFLPRQNKERTQAIEKLAAREETWILYESPHRLKETLKAIIKITGNDRKMVLCRELTKRFEEFLRGTVEDALNWATDEEVRGEFCIIIEGNANP | not soluble
MGSDKIHHHHHHMMYTNDNRIVMTLDAGGTNFVFSAIQGGKEIADPVVLPACADCLDKCLGNLVEGFKAIQAGLPEAPVAISFAFPGPADYQAGIIGDLPNFPSFRGGVALGPFLEDIFGIPVFINNDGSLFAYGEALTGVLPEINRRLREAGSTKRYKNLLGVTLGTGFGAGVVIDGELLRGDNAAGGYVWCLRNKKYPEYIVEESVSIRAVMRVYAERSGDAGARTPKEIFEIAEGIRPGNREAAIAAFEELGEMAGDALASAITLIDGLIVIGGGLSGASKYILPVLLKEMNAQTGMMDGARFGRLQKEVYDLDEEKSFAGFARGEAVEVLVPGTNRKVGYDPCKRIGVTFSKQGANRSIAMGAYVFALNHLSK | not soluble
MSLEPCWKVGFAETSGCLPKLCIAQLRLPAFCNSEGLFGLFDGETGNGVPNLLVKAIPKILLEERTVKETANDYMKYTLLSAHRELKQRGQQEAVNVTLCHIARSRLPTEAMSYLPQTVASGRKFILRVATVGESSAVLIKHNRCVLLNKGSPARKLGLSANFPVTVPDPEVQEVVLTDADEYLVLGNRKLWEVITMETVAEEIRKEENILLAAKRVQDIAQSYGAEENLSVMIVRFNEGHHHHHH | soluble
MAHHHHHHMTGWRQIVRCSICHLNRCAYPVTPALTDLKHLKHMWTLHGEAAPTADKQCLLLALAAEAGEQLAELNSRQAAAQAKAKEAQLAIAKHLGMLEMAVEASSYKIVDSTTPVNADSSANTAKLSLKIARGNNAGCSLTKAGEGNPFADDPLNEQNILNLKLTAATDVVKSLKETAISIRSASSNCPSDSTGKTGIKEALGSCNLGGSAEYEFTTAAATTGNAQSSVPVFKEESTTTNCGEVSGLSAEAMSPAQKLAKAICEAIKAKAGEGKTLRTATGETLSNRKTIQTFLRNCVPEFQKKN | not soluble
MGSDKIHHHHHHMKQKLRLIQRRTVHYLLVVTYWISKFFPVQTKKVVFATYRSDKLVDNFRAVYDELESRELGFQYVFLLKRFPQNLIGQIKYVFHMMRATYELATARYFIIDDYYYPVYVSKLRKGTEVIQLWHACGAFKKFGYSVLDKSYSPDDDYLKMVAIHRNYSKVYVSGEACIGPFAEAFGMDSTRIHPLGVPRTDQLLNRERQVQIEHKLYDRYPEWRSKKLILLAPTFRGNGQTTAHYDQELDFQQFREQLGPDHILLLRMHPFVLNRPVVPAEFSNQIIDMTDYPDINDLMQVADILVTDYSSVIFEFALLKKPIILLVNDLNAYREERDFYFPYESFVPGPIVSSFNDVISWIKAGQFEPEQIEDFAARFFTYQDGLATKRIVNHILTGALPDAPMRPEERKTV | not soluble
MGSDKIHHHHHHMTQALTKQVIFDEFIDWLPENSEGRYELHDGVIVEMPKPSGKHSNVIGFLIEELFLSIIQIGKRGIWTIPRESIVKPNSKSGYEPDIIVLDQEALSNEPRWERESIIENPASVKLIVEVVSTAVASSRETRPTHCLTNWRDDYYKKRADYVRVASRREEMGIPEYWIVDYAGLGGRAFIGNPKQPTISVNYLIEGEYQVSQFRQGERIQSVTFPELDLTVDQIFQVG | not soluble
MSPSESGELSIIQELSQRIVEAQRQIRILDSIKWDESVKQEFFKFKGKKLPSIDKAYYDGKPLPFKVKDKQEEFRIILRDAQNQLGQYSTVTRLIRRQCEEYSRAAQMLSLRGTPSFSEMAMELYGSPDDVFYVGGPRMCEMGSLLFDVLKSLQVQLQSQADIKRYTPIQAQEILQERLGKFFDKHPGRVSVMVSDDMIADASAGADSIKLSQNAMFSDRDLRYLEVHEGWVHVGTTLNGALQPNCFFLSKGSPSSSVIQEGLAVITEVVTFSSYPGRMLKITNRVIALDKVTQGADFIDIYRYFLECGLSEEDSYNQSVRIFRGSTPTGGPFTKDLSYAKGFVLIYNYIRFAIGQKRVDTIPLLFTGKLVLDDLPLLGELKEREILTDPVYLPPPFQDLAALSAWMSFSLYLNQFDLNEIQKNFRFLLVLEHHHHHH | not soluble
MAIETAILEKIKQYQTIIIHRHQRPDPDCIGSQLALRAILRASFPEKTVVAVGKHYPGFDWMGQADQEVSDDTYHQALVIVVDTANQPRVDDERWQTGAAVIKIDHHPNDDAFGDLQWVLPQASSTSEIIYDWFEANHADLTMPDDAARLLYAGIVGDTGRFMYPATSANTFAVAGKLLAYDFSMTAVNQAEDEISPEMARLSAYAYQNLEILPSGAAYLKLTDEIVESFGLAASDSTSAIVPLPGKITSVVAWAIFVESKDKTFRVRLRSKGPSINELAKRHGGGGHALASGAAAKDQAEIDQVIHELDQLVADTKGENELEHHHHHH | soluble
MGGSHHHHHHGMASALSQATKRKHVVKEVLGEHIVPSNQQQIVRVLRTPGNNLHEVETAQGQRFLVSMPSKYRKNIWIKRGDFLIVDPIEEGEKVKAEISFVLCKDHVRSLQKEGFWPEAFSEVAEKHNNRNRQTQPELPAEPQLSGEESSSEDDSDLFVNTNRRQYHESEEESEEEEAA | not soluble
MAADRNTGHTEEDKLDVLKSTQTVIHKALEKLGYPEEVYELLKEPMRLLTVKIPVRMDDGSVKIFTGYRAHNDSVGPTKGGIRFHPNVTEKEVKALSIWMSLKCGIIDLPYGGGKGGIVCDPRDMSFRELERLSRGYVRAISQIVGPTKDVPAPDVFTNSQIMAWMMDEYSRIDEFNSPGFITGKPLVLGGSHGRESATAKGVTICIKEAAKKRGIDIKGARVVVQGFGNAGSYLAKFMHDAGAKVVGISDAYGGLYDPEGLDIDYLLDRRDSFGTVTKLFNDTITNQELLELDCDILVPAAIENQITEENAHNIRAKIVVEAANGPTTLEGTKILSDRDILLVPDVLASAGGVTVSYFEWVQNNQGFYWSEEEVEEKLEKMMVKSFNNIYEMANNRRIDMRLAAYMVGVRKMAEASRFRGWI | soluble
MKKHVMLVKPFSLEDEKDSENTPPNLIQRILSLFKNVRPGSDLTNFQLPPQMNLARSQLQCYGEIVYSFDGHDLLGECSRRDKPIERMKAMVTWYISTLRPLIFGLAPYNPVIGETHHVSNGHINVLAEQISHHPPVSALHATHEKENVDVLLCQYFTPKFRGAYVDVEVKGKRVVKLLNHKETYEMNQPKLLMTFLPAMGAHWAGKIVIKCPETGLGAELQLLSDSFLSRFTGNNKRAIKGKIFESSSRKQLYEISGHWDRTVTAKNTKTGQLEVIYKASENIAKLKTPIVENLQEVSESESAVVWGEVSEGIVTNNWEKAREAKRDVEEKQRESLRKRKASGQSWIPKHFSVARTGKDWDCVPLQPTVPRAPIVVPL | soluble
